Here are results for one substance from IntAct's records for PubMed 23333653.

This assay addresses T1, cata_human CAT (UniProt P04040).
T1 sequence: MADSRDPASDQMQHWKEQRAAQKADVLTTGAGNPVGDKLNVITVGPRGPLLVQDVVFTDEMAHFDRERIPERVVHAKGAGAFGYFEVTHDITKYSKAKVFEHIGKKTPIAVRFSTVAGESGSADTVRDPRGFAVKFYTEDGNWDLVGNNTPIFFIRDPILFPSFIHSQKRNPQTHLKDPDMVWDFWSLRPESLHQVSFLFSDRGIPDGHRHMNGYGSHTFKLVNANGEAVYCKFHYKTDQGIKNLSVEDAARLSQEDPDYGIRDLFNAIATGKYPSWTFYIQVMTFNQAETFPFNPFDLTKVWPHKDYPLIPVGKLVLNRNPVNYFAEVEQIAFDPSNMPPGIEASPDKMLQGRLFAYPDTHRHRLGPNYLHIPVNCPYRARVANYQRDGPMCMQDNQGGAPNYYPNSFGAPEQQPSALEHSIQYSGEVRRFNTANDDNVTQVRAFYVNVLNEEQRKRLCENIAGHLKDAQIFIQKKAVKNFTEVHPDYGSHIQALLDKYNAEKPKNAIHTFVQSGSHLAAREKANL

With “Ras-related protein Rab-14 (Homo sapiens) (from UniProt P61106) Q70N”, the “effect of a mutation on the interaction” value is “increasing interaction”.
